Target: C1-esterase inhibitor (human plasma protease C1 inhibitor), purified or in human serum (UniProt P05155)
Sequence (P05155 23-500): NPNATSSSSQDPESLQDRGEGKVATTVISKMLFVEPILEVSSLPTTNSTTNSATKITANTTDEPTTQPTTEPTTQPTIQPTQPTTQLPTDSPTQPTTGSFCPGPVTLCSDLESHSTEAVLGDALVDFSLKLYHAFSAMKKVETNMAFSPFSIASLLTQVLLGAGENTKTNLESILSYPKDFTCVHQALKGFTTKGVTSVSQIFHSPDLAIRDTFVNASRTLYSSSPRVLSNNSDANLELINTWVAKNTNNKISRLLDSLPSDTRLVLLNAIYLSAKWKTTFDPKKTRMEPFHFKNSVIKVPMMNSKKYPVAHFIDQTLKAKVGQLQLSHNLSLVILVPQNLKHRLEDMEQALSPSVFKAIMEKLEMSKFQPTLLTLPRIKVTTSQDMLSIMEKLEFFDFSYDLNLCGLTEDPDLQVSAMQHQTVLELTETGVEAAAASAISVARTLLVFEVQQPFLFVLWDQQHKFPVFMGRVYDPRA

Substance | cleavage of C1-INH (immunoblot) | kallikrein activity (cleavage of chromogenic substrate S-2302)
StcE E435D-His (from pTEG1 in BL21(DE3), strain WAM2726) | While StcE-His is able to degrade C1-INH, we observed no such cleavage with the mutant protein | –
purified kallikrein (Calbiochem) | – | ranging from 88.8% (±2.6% SEM) to 10.3% (±1.3% SEM) activity

Reference: patent US20040234530
